This is an account of results in paper PMC5278347, “Identification and Characterization of a Plastidic Adenine Nucleotide Uniporter (OsBT1-3) Required for Chloroplast Development in the Early Leaf Stage of Rice” (Scientific Reports, 2017).

In series [1] the target is T1, OsBT1-3 (Oryza sativa, UniProt A0A0P0WYD6).
T1 construct: gene Os06g0602700; E. coli Rosetta(DE3)pLysS, intact cells; antibody peptide VPGTEAESVNEEEVVDGK
T1 sequence (A0A0P0WYD6 1-423): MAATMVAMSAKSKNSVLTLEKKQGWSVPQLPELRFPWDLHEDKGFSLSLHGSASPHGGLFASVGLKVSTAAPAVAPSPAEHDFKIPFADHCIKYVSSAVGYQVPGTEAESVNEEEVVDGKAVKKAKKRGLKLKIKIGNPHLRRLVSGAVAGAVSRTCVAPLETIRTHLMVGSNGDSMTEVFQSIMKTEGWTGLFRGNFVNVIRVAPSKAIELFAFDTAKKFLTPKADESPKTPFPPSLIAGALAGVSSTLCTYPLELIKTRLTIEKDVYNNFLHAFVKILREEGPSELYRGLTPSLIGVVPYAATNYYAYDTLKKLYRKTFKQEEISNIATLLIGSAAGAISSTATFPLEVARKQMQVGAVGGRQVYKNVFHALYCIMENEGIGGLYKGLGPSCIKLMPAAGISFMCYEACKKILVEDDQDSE
Briefly: inhibition of [α^32P]-ATP uptake into E. coli cells. The settings on record: 2000 µM; 2 mM PLP; lysozyme-treated cells; ATP printed as 50 mM (probably μM). It counts as cell-based.

Substrate in series [2]: Nc1ncnc2c1ncn2[C@@H]1O[C@H](COP(=O)(O)O)[C@@H](O)[C@H]1O
The series is described as follows: cells, lysate or membranes. The series is classed as cell-based, Oryza sativa. The settings on record: labelled compound ([^14C]-AMP); 0 to 900 μM; IPTG-induced cells, non-induced background subtracted.

Substrate in series [3]: Nc1ncnc2c1ncn2[C@@H]1O[C@H](COP(=O)(O)OP(=O)(O)O)[C@@H](O)[C@H]1O
Briefly: cells, lysate or membranes. The settings on record: labelled compound ([α^32P]-ADP); 0 to 900 μM; IPTG-induced cells, non-induced background subtracted. The series is classed as cell-based, Oryza sativa.

Substrate in series [4]: Nc1ncnc2c1ncn2[C@@H]1O[C@H](COP(=O)(O)OP(=O)(O)OP(=O)(O)O)[C@@H](O)[C@H]1O
The series is described as follows: cells, lysate or membranes. It counts as cell-based, Oryza sativa. To be noted: labelled compound ([α^32P]-ATP); 0 to 900 μM; IPTG-induced cells, non-induced background subtracted.

As for `Cc1ncc(COP(=O)(O)O)c(C=O)c1O` [PLP], in series [1], the “Transport Rate (%)” value worked out at 27.4 ± 1.9%.

B1: OsBT1-3 (Oryza sativa Japonica Group) (protein)
chain: MAATMVAMSAKSKNSVLTLEKKQGWSVPQLPELRFPWDLHEDKGFSLSLHGSASPHGGLFASVGLKVSTAAPAVAPSPAEHDFKIPFADHCIKYVSSAVGYQVPGTEAESVNEEEVVDGKAVKKAKKRGLKLKIKIGNPHLRRLVSGAVAGAVSRTCVAPLETIRTHLMVGSNGDSMTEVFQSIMKTEGWTGLFRGNFVNVIRVAPSKAIELFAFDTAKKFLTPKADESPKTPFPPSLIAGALAGVSSTLCTYPLELIKTRLTIEKDVYNNFLHAFVKILREEGPSELYRGLTPSLIGVVPYAATNYYAYDTLKKLYRKTFKQEEISNIATLLIGSAAGAISSTATFPLEVARKQMQVGAVGGRQVYKNVFHALYCIMENEGIGGLYKGLGPSCIKLMPAAGISFMCYEACKKILVEDDQDSE
notes: E. coli Rosetta(DE3)pLysS, intact cells; antibody peptide VPGTEAESVNEEEVVDGK
A word on the Km: it is the substrate concentration at which the rate is half of its maximum. For the molecule B1, the Km in series [2] was found to be 106.1 ± 3.45 µM; in series [3] it was 101.7 ± 7.62 µM; in series [4], 83.5 ± 2.74 µM.
